Biological target: the molecule itself
Test: SAXS; steady state, flow cell; 1.14 mg/mL disassembled Cp185 in disassembly buffer (1.5 M GuHCl, 0.5 M LiCl, 50 mM HEPES pH 7.5, 2 mM DTT); monomer to dimer

B1: full-length hepatitis B virus core protein Cp185 (natural protein)
chain: MDIDPYKEFGATVELLSFLPSDFFPSVRDLLDTASALYREALESPEHCSPHHTALRQAILCWGELMTLATWVGNNLEDPASRDLVVNYVNTNMGLKIRQLLWFHISCLTFGRETVLEYLVSFGVWIRTPPAYRPPNAPILSTLPETTVVRRRDRGRSPRRRTPSPRRRRSQSPRRRRSQSRESQC
  stoichiometry N: 2
